The supplement of paper PMC10567573
± gives the standard deviation.

Test: protein stability index of a GFP-peptide fusion (GPS, HEK-293T) (PSI 1-6); higher = more stable
[1] = treatment: DMSO, c terminus: a fixed tail appended
[2] = treatment: MLN4924 1 uM, 8 h, c terminus: a fixed tail appended
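Further: 24-mer peptide tiles fused after GFP, lentivirally expressed, FACS-sorted into six equal bins by GFP/DsRed ratio, decoded by Illumina sequencing, PSI is the read-weighted mean bin number.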

Sequence	protein stability index [1]	protein stability index [2]	protein stability index (treatment: DMSO, c terminus: native)	protein stability index (treatment: MLN4924 1 uM, 8 h, c terminus: native)
LDRFLSLEPVKKSRLQLLGATCMF [CCND1]	2.42 ± 0.36	2.39 ± 0.14		
LKFDNSYSLWRSKSVYYRVYYTR [ACBD3]			2.52 ± 0.6	2.29 ± 0.71
AAQDRPMSPGDCPPETTETPKCSS [YJU2B]	5.54 ± 0.24	5.3 ± 0.34		
FLMLINLGLGSMIGTMAGITTPII [SLC6A17]	3.1 ± 0.31	3.03 ± 0.76		
GTSTLLVWVGVIRYLTFFHNYNIL [MCOLN1]	3.35 ± 0.16	2.99 ± 0.2		
PGEKSHWGEGLHQLREALKILAER [EMID1]		2.13 ± 0.33		
KDVRAPSRPAVGPPQPGCPAFIIV [ZSWIM9]	2.23 ± 0.75	2.43 ± 0.6		
QELIETNQQLRNELQLEQSRAANQ [CEP70]	5.122 ± 0.01	5.05 ± 0.26		
KVQDALQNQSDSLLALAGAVQRLE [SCARA5]	3.16 ± 0.24	3.29 ± 0.33		
EDSAESRPWRAGVLAEGDNASRSL [PSD2]	5.21 ± 0.18	5.14 ± 0.084		
EVLRSEAGIELIIEDDIRPEKQKR [MYBL2]	4.21 ± 0.24	4.31 ± 0.34		
FMLMLLVLGIQVKCFHEIITIGYR [CDS1]	3.31 ± 0.45	3.3 ± 0.41		
SLTNDWEDHLAVKHFSVEGQLEFR [HSP90AB1]	3.49 ± 0.23			
RQQRLNQLEKPPEKEEDHAPEFIK [FAM107A]	5.33 ± 0.15	5.34 ± 0.35		
ESSVPVTPSVPPPASQHSTPAGLP [FBF1]	5.04 ± 0.18	5.19 ± 0.17		
PLRAAHRRFNFDTDRPLLSTLEES [SMG5]	3.94 ± 0.14	3.94 ± 0.18		
WQVLCMLSLCCWGWVSGQLRYSVV [PCDHGC5]	3.24 ± 0.69	3.04 ± 0.35		
GCGWRCPEHGDRVAELFCRRCRRC [TRIM14]	3.69 ± 0.27	4.12 ± 0.18		
KLTKESYPVVVAESMYGDFQEAMT [TENT5D]	3.16 ± 0.2	3.41 ± 0.37		
AVKLYNSGDFRSSTEDMERALSEY [P3H4]	4.57 ± 0.4	4.14 ± 0.26		
ELRLVFGPLGDQLHAQLRDLTSSS [ELF3]	2.17 ± 0.25	2.25 ± 0.29		
LTVYAWERGSMKTHFNTAQGFRTV [OAS1]	2.72 ± 0.57	2.52 ± 0.21		
AKGWGPCYSRQFITSCPCWLEILL [SMAD6]	2.69 ± 0.29	2.8 ± 0.42		

Sequence	protein stability index [1]	protein stability index [2]	protein stability index (treatment: DMSO, c terminus: native)	protein stability index (treatment: MLN4924 1 uM, 8 h, c terminus: native)
DIDMTDYDDVRRCCSSADICPKCW [PRIM1]	4.8 ± 0.41	4.84 ± 0.25		
PGCGYFCTAGNFMECQPESSISHR [EHMT1]	2.64 ± 0.15	2.61 ± 0.53		
GPWQLNVFVCRVSAVLFYVNMYVS [P2RY14]	2.77 ± 0.36	2.72 ± 0.79		
ALLPSLSHCSQLTTLSFYGNSISI [PRAME]	3.14 ± 0.66	3.14 ± 0.35		
RNLRTQQEIEDKMKGFSFKEDTLL [C8orf76]	4.11 ± 0.12	4.16 ± 0.19		
SMPRINHGVLSAEGFLFVFGGQDE [GAN]	3.05 ± 0.41	2.88 ± 0.72		
LASAYTGRLSMAAADIVNFLTVGS [ZBTB22]	2.77 ± 0.28	3.09 ± 0.66		
EGASSQIGRAAGTGFTVNVAWNGP [HDAC6]	3.13 ± 0.34	3.38 ± 0.29		
LLMAVVSMFTLPVVYVKHQAQIDQ [RTN1]	2.99 ± 0.39	3.32 ± 0.43		
EDQWGKGTLTPRMTTDFDLSLDNS [TRIM9]	4.7 ± 0.18	4.9 ± 0.33		
LELPEDEEEKKKMEESKAKFENLC [HSP90AB1]	5.46 ± 0.42	5.3 ± 0.33		
YLSKTYCVDATRETNRLGRLINHS [KMT5A]	2.35 ± 0.046	2.62 ± 0.25		
NYFVTMFDDYSATLPLTLIVILEN [SLC6A17]	3.05 ± 0.61	2.85 ± 0.62		
GTADGADLRTVDPETQARLEALLE [ANKRD17]	4.42 ± 0.15	4.5 ± 0.21		
KVVLIGDSGVGKSNLLSRFTRNEF [RAB11A]	2.33 ± 0.19	2.28 ± 0.39		
TFLPYTFSLMVTFPDVPLGIFLFC [TMEM175]	2.49 ± 0.14	2.98 ± 0.8		
GDTVVQGDLQETTVVTGLGPDTQD [PBXIP1]	5.56 ± 0.17	5.63 ± 0.23		
QQELETLPTTKMAQTNPTPGSLGP [CRYBA1]	5.15 ± 0.1	5.09 ± 0.13		
EEREKEAAEQAERSQSSIVPEEEQ [SMARCE1]	5.62 ± 0.36	5.57 ± 0.15		
VLYALRSFDYEQFHELQMQVTASD [PCDHGA10]	2.26 ± 0.12	2.22 ± 0.27		
QVLNETRNQYEALVETNRREVEQW [KRT33B]	4.24 ± 0.43	4.5 ± 0.17		
GPCKNCKMIMDTAGNDPYCFVEFH [TIA1]	2.2 ± 0.31	2.25 ± 0.35		
GGLMARPEYREWNPELIKPKKLLN [FAM107A]	3.68 ± 0.36	4.495 ± 0.034		

Sequence	protein stability index [1]	protein stability index [2]	protein stability index (treatment: DMSO, c terminus: native)	protein stability index (treatment: MLN4924 1 uM, 8 h, c terminus: native)
YQNSIDDRLLVERIFAQYMVPHNL [PDS5B]	2.21 ± 0.55	2.46 ± 0.79		
TYEKLSRAMRYYYKREILERVDGR [ELF3]	2.21 ± 0.4	2.26 ± 0.37		
EKPPSGTKEKKHQCDHCERCFYTR [PLAGL1]	3.87 ± 0.26	4.3 ± 0.62		
RDEVAFHTAKCEKLQKEKEELERR [MTUS2]	5.61 ± 0.17	5.44 ± 0.33		
PHKGLNLHPLLSGRLGRWLRSTRF [PCDHGC5]	2.35 ± 0.23	2.13 ± 0.28		
MAQPLCIRALLNLHTDVGSVRMRR [NEK8]	2.48 ± 0.16	2.58 ± 0.099		
QLKIRKSNQIPTEVRSKAEEVVSF [FUNDC2]	3.9 ± 0.45	3.88 ± 0.25		
KMLGNPSRLPAKCPGKGAWSIPWK [FKBP8]	2.08 ± 0.26	2.25 ± 0.23		
TDATAFWWGEWTKWTACSRSCGGG [ADAMTSL2]	2.24 ± 0.68	2.59 ± 0.6		
QPKKNNVMARTRLVVPNKGYSSLD [FAM219A]	3.85 ± 0.3	4.07 ± 0.27		
EHRHAAAALAAMNGRKIMGKEVKV [TIA1]	3.88 ± 0.23	3.85 ± 0.27		
NAEMKSAMRKLWSKKVSLAGKWLY [OR4A15]	3.85 ± 0.63	2.8 ± 0.85		
KPEAPLHLPVTFPGKDYDADRQCQ [ADAMTS4]	5.05 ± 0.15	5.13 ± 0.22		
NGFPDSTGDPLPEISKDNSCKENC [EDARADD]	5.2 ± 0.24	5.17 ± 0.48		
YGYVYFRQVRDKTLKRGYFQKSLV [DENND6A]	2.56 ± 0.46	2.1 ± 0.16		
ASADRTVIVWDGDTTRQVQRISCF [WDR41]	2.25 ± 0.27	2.58 ± 0.26		
HLEIDDMYTPAYGDFDFDEVKFPN [MYORG]	4.49 ± 0.12	4.26 ± 0.19		
RFPLDSAQDPDVGTNTVSFYTLSP [PCDHGC5]	3.68 ± 0.15	3.88 ± 0.12		
QRALHKYSLMKRQMMSATAQNREP [SNX8]	3.24 ± 0.29	3.32 ± 0.18		
SRRIPSTDANLPSGGKGFKLRRQP [RAB22A]	4.09 ± 0.18	4.25 ± 0.23		
QIITSLVFHLPFYSSNQLHHFFCD [OR10K2]	2.8 ± 0.094	3.02 ± 0.21		
LDDIYYFGGQNAHNQIAIYAHQPR [FUT8]	2.87 ± 0.41	2.92 ± 0.39		
IFRSYSRGAQGILLVYDITNRWSF [RAB40C]	2.52 ± 0.7	2.61 ± 0.73		

Sequence	protein stability index [1]	protein stability index [2]	protein stability index (treatment: DMSO, c terminus: native)	protein stability index (treatment: MLN4924 1 uM, 8 h, c terminus: native)
TLHPISSEELLSLKYENDYPSVIL [ETS1]	2.55 ± 0.17	2.76 ± 0.23		
LSQMGAQSSGKILLCPLCQEEEQA [TRIM15]	3.85 ± 0.5	4.39 ± 0.23		
RRGVSDWDLRMKLHDRGAQVIHPQ [DNAAF3]	3.58 ± 0.092	3.55 ± 0.35		
KWLLWTEHQYRLPPMGKAFQELAG [SPDEF]	2.44 ± 0.55	2.16 ± 0.48		
RQVQSLMVHQRKLEAELLQIEERH [SMARCE1]	4 ± 0.12	4.23 ± 0.17		
NARGMGIRSPRPASVATWAIFVHR [CTBP1-DT]	2.16 ± 0.48	2.15 ± 0.37		
QTPILEGRSGPGCAVLDDSIYLVG [KLHL14]	2.7 ± 0.23	2.63 ± 0.28		
QKIQFKRETASLKLLPHQPRIVEM [PDZK1]	2.54 ± 0.39			
EVEKRGINGSEGDGAEIAEKFVFF [DYNC2LI1]	3.8 ± 0.33	4.41 ± 0.34		
IRTKLNYNPPKDDGSTYKIELEGI [GAN]	2.76 ± 0.1	2.84 ± 0.39		
LCKVLGVLFSVAGGLFVGKEGPMI [CLCN6]	2.73 ± 0.25	2.89 ± 0.5		
PSDFFIGAVIEVFGHRFIILDTDE [EFHC1]	2.32 ± 0.43	2.31 ± 0.36		
LGDSGLGPWQLNVFVCRVSAVLFY [P2RY14]	3.32 ± 0.17	2.84 ± 0.42		
RFVQAEGRRATLQRLVEALEENEL [TRADD]	3.57 ± 0.39	3.62 ± 0.37		
RRRRMETIVFLDKEVFASRISNPS [PCMTD2]	2.57 ± 0.26	2.77 ± 0.38		
ACAQLATGAACRLVEAVLSGEVLN [HDAC6]	2.44 ± 0.53	2.65 ± 0.4		
RRGELRHITKLKPWSLFDVLVEKY [SRPK2]	2.4 ± 0.53	2.12 ± 0.057		
FLFNSELLSDVRFVLGKGRGAAAA [BTBD1]	2.12 ± 0.33	2.33 ± 0.34		
DETLYQEFNGLKKMNPKLKTLLAI [CHIT1]	2.3 ± 0.17	2.52 ± 0.47		
IKIFKYISFNKTMTQLSSTLARCA [PKD2L1]	2.37 ± 0.15	2.26 ± 0.19		
